Consider 1 substance from US20020115169A1.

The test addresses HIV-1 Rev protein (recombinant, expressed in E. coli, refolded) (HIV-1). In words: cell-based or functional assay.

With “nucleolar protein B23.1 (recombinant, produced in E. coli) (from UniProt P13084 1-292)”, the % inhibition of temperature-dependent Rev aggregation (turbidity at 360 nm, 20 minute time point) versus molar ratio of B23 to Rev (mol B23 per mol Rev) was 1.
